From US20160152729A1 (Novo Nordisk, published 2016)
Residue numbers refer to the chain shown, from its start. Values belong to the binder of their own block, whether it stands above or below them.

What was measured:
human TFPIα [1] = target: T1, human TFPIα (human, UniProt P10646 29-304); test: cell-based or functional assay
human TFPI (1-79) = target: T2, human TFPI (1-79) (human, UniProt P10646 29-107); test: SPR Biacore T200; mAb captured on anti-mouse Ig; TFPI as analyte; 1:1 model
T2 construct: Acidic N-terminal region and KPI-1 domain
From the text: (§1) Binding interaction data were obtained by means of Surface Plasmon Resonance in a Biacore T200 instrument. Polyclonal rabbit anti-mouse immunoglobulin (Mouse Antibody Capture Kit, GE Healthcare) was immobilized to a series S CM4 sensor chip (GE Healthcare) in flow-cells 1-4 using the amine coupling protocol available with the Biacore T-200 control software version 2.0 (GE Healthcare) and the reagents provided with the Amine Coupling Kit (GE Healthcare). The relevant mouse monoclonal antibody was captured in flow cell 2, 3, or 4 at a fixed concentration. Different concentrations of human TFPIα or TFPI (1-79) were tested by diluting the sample in running buffer (10 mM HEPES, pH 7.4, 300 mM NaCl, 5 mM CaCl₂, 0.05% Surfactant P20, 1 mg/ml BSA). Each sample was assayed using 300 seconds of contact time followed by 420-600 seconds of dissociation time at 30 μl/min flow rate. A buffer blank was also assayed. The sensor surface was regenerated with 10 mM Glycine pH 1.7 either for 180 sec at 30 μl/min flow rate or with two cycles each of 30 seconds at 30 μl/min flow rate.
(§2) The Biacore T200 Evaluation software (version 2.0) was used to analyse the data. Determination of binding constants (kₐ, kd, KD) was obtained assuming a 1:1 interaction of TFPI and the monoclonal antibody of interest.

human TFPIα [2] = target: T1, human TFPIα; test: as above
From the text: as §1, §2

human TFPIα [3] = target: T1, human TFPIα; test: cell-based or functional assay; remark: listed apart in the source
human TFPIα [4] = target: T1, human TFPIα; test: cell-based or functional assay; remark: listed apart in the source
human TFPIα [5] = target: T1, human TFPIα; test: cell-based or functional assay; remark: listed apart in the source
human TFPIα [6] = target: T1, human TFPIα; test: cell-based or functional assay; remark: listed apart in the source
human TFPIα [7] = target: T1, human TFPIα; test: SPR Biacore T200; Fab captured on Human Fab Binder; TFPIα as analyte; 1:1 model; 25 °C
Experimental: Human Fab Binder (Human Fab Capture Kit, GE Healthcare) was immobilized to a series S CM4 sensor chip (GE Healthcare) in flow-cells 1-4 at 9000-10000 response units (RU) using the amine coupling protocol available within the Biacore T-200 control software (GE Healthcare) and the reagents provided with the Amine Coupling Kit (GE Healthcare). […] Different concentrations of human TFPIα were tested by diluting the sample in running buffer (10 mM HEPES, pH 7.4, 300 mM NaCl, 5 mM CaCl₂, 0.05% Surfactant P20, 1 mg/ml BSA). Each sample was assayed using 300 seconds of contact time followed by 600 seconds of dissociation time at 50 μl/min flow rate. A buffer blank was also assayed. The sensor surface was regenerated with 10 mM Glycine pH 2.1 with two cycles each of 30 seconds at 50 μl/min flow rate. The analysis temperature was 25° C. and the sample compartment temperature 10° C.
as §2

B1: mAb 2F35 (antibody, IgG1, V domains shown)
VH: EVQLQQSGAELVRPGALVKLSCKASGFNIKDYYIHWVKQRPEQGLEWIGWIDPENGNTIFDPKFQGRASITADTSSNTAYLQLSSLTSEDTAVYYCAGRWYAMDYWGQGTSVTVSS
VL: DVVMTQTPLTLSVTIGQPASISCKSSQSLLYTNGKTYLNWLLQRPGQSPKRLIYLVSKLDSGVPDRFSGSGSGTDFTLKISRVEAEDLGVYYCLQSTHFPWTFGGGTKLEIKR
notes: Murine mIgG1, kappa light chain
- FXa activity (%); FXa generated after 30 min by FVIIa/Innovin/FX with 4 nM TFPIα, 64 nM antibody (human TFPIα [1]): 18.3%
- Kd (human TFPI (1-79)): 13300 pM
- koff (human TFPI (1-79)): 0.00251 s⁻¹
- kon (human TFPI (1-79)): 188000 M⁻¹ s⁻¹
- Kd (human TFPIα [2]): 6270 pM
- koff (human TFPIα [2]): 0.00141 s⁻¹
- kon (human TFPIα [2]): 224000 M⁻¹ s⁻¹
- Thrombin peak height (Peak); thrombin generation in FVIII-neutralised plasma + 5 nM TFPIα, 10 nM antibody (human TFPIα [3]): 3.6 nM
- Thrombin peak height (Peak); thrombin generation in FVIII-neutralised plasma, no TFPIα added (plasma TFPI), 10 nM antibody (human TFPIα [3]): 30.4 nM
- time to peak (ttPeak); thrombin generation in FVIII-neutralised plasma + 5 nM TFPIα, 10 nM antibody (human TFPIα [3]): 70.3 min
- time to peak (ttPeak); thrombin generation in FVIII-neutralised plasma, no TFPIα added (plasma TFPI), 10 nM antibody (human TFPIα [3]): 9.6 min
- Thrombin peak height (Peak); thrombin generation in FVIII-neutralised plasma + 20 nM TFPIα, 200 nM antibody (human TFPIα [4]): 0 nM
- FXa activity (%); remaining FXa amidolytic activity after 40 min, 32 nM mAb pre-incubated with 8 nM TFPIα (human TFPIα [5]): 13.4%
- FVIIa/sTF activity (%); 150 nM TFPIα, 200 nM antibody (human TFPIα [6]): 61.4%
- FXa activity (%) after 100 min incubation; 4 nM TFPIα, 20 nM antibody (human TFPIα [6]): 4.2%

B4: Fab 0296 (Fab, V domains shown)
VH: QVQLKQSGPGLVQPSQSLSITCTVSGFSLTNYGVHWVRQSPGKGLEWLAVIWRGGSIDYNAAFMSRLSITKDNSKSQVFFKMNSLQADDTAIYYCAKNSHGNYVGYAMDYWGQGTSVTVSS
VL: GIVMTQSQKFMSTTVGDRVSITCKASQSVGPAVAWYQQKPGQSPKLLIYSASNRYTGVPDRFTGSGSGADFTLTISNLHSEDLADYFCQQYTSYPTFGGGTKLEIKR
notes: Chimeric Fab of mAb 2F22; heavy chain truncated after the human IgG4 hinge lysine; also called anti-TFPI2F22 Fab
- Kd (human TFPIα [7]): 720 pM

Now from value to binder:

- FXa activity (%); FXa generated after 30 min by FVIIa/Innovin/FX with 4 nM TFPIα, 64 nM antibody (human TFPIα [1]): 40.5%
- Kd (human TFPI (1-79)): 965 pM
- Kd (human TFPIα [2]): 688 pM
- Thrombin peak height (Peak); thrombin generation in FVIII-neutralised plasma + 5 nM TFPIα, 10 nM antibody (human TFPIα [3]): 46.5 nM
- Thrombin peak height (Peak); thrombin generation in FVIII-neutralised plasma, no TFPIα added (plasma TFPI), 10 nM antibody (human TFPIα [3]): 100 nM
- time to peak (ttPeak); thrombin generation in FVIII-neutralised plasma + 5 nM TFPIα, 10 nM antibody (human TFPIα [3]): 11.3 min
- time to peak (ttPeak); thrombin generation in FVIII-neutralised plasma, no TFPIα added (plasma TFPI), 10 nM antibody (human TFPIα [3]): 9.1 min
- Thrombin peak height (Peak); thrombin generation in FVIII-neutralised plasma + 20 nM TFPIα, 200 nM antibody (human TFPIα [4]): 23.7 nM
- FXa activity (%); remaining FXa amidolytic activity after 40 min, 32 nM mAb pre-incubated with 8 nM TFPIα (human TFPIα [5]): 50.4%
- FVIIa/sTF activity (%); 150 nM TFPIα, 200 nM antibody (human TFPIα [6]): 88.3%
- FXa activity (%) after 100 min incubation; 4 nM TFPIα, 20 nM antibody (human TFPIα [6]): 60.8%
B2: mAb 2F22 (antibody, IgG1, V domains shown)
VH: B4 VH
VL: B4 VL
notes: as for B1

- FXa activity (%); FXa generated after 30 min by FVIIa/Innovin/FX with 4 nM TFPIα, 64 nM antibody (human TFPIα [1]): 36.6%
- Kd (human TFPI (1-79)): 561 pM
- koff (human TFPI (1-79)): 0.000154 s⁻¹
- kon (human TFPI (1-79)): 274000 M⁻¹ s⁻¹
- Kd (human TFPIα [2]): 448 pM
- koff (human TFPIα [2]): 7.69e-05 s⁻¹
- kon (human TFPIα [2]): 172000 M⁻¹ s⁻¹
- Thrombin peak height (Peak); thrombin generation in FVIII-neutralised plasma + 5 nM TFPIα, 10 nM antibody (human TFPIα [3]): 28.6 nM
- Thrombin peak height (Peak); thrombin generation in FVIII-neutralised plasma, no TFPIα added (plasma TFPI), 10 nM antibody (human TFPIα [3]): 88.4 nM
- time to peak (ttPeak); thrombin generation in FVIII-neutralised plasma + 5 nM TFPIα, 10 nM antibody (human TFPIα [3]): 13.8 min
- time to peak (ttPeak); thrombin generation in FVIII-neutralised plasma, no TFPIα added (plasma TFPI), 10 nM antibody (human TFPIα [3]): 9.3 min
- Thrombin peak height (Peak); thrombin generation in FVIII-neutralised plasma + 20 nM TFPIα, 200 nM antibody (human TFPIα [4]): 20.9 nM
- FXa activity (%); remaining FXa amidolytic activity after 40 min, 32 nM mAb pre-incubated with 8 nM TFPIα (human TFPIα [5]): 48.9%
- FVIIa/sTF activity (%); 150 nM TFPIα, 200 nM antibody (human TFPIα [6]): 88.6%
- FXa activity (%) after 100 min incubation; 4 nM TFPIα, 20 nM antibody (human TFPIα [6]): 58.1%
B3: mAb 2F3 (antibody, IgG1, V domains shown)
VH: B4 VH with T30S, N31S, A49G, I57T, Y59F, L67V, I69F
VL: DIVMTQSQKFMSTTVGDKVSIPCKASENVGAAVAWYQQKPGQSPTLLIYSASNRYTGIPDRFTGSGSGTDFTLTIRTVQSEDLADYFCQQYTNYPTFGGGTKLEIKR
notes: as for B1
